Experiment [1] concerns the target T1, VEGF-121-His (inhouse production) (human, UniProt P15692 207-395).
T1 construct: also called hVEGF-A121; VEGF-A121; not shown: His tag
T1 sequence: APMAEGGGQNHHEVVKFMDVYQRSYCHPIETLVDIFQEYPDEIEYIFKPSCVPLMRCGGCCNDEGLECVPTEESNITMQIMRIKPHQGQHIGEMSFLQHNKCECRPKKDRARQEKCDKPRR
The experiment is described as follows: inhibition ELISA: antibody pre-incubated with 0.34 nM VEGF-121-His, binding to coated biotinylated VEGF-R1 detected. On the procedure: 384 well streptavidin plates (Nunc/Microcoat #11974998001) were coated with 0.25 μg/mlbiotinylated VEGF-R1 or […] biotinylated VEGF-R2 (inhouse production, each 25 μl/well in DPBS (1×) (PAN, #PO4-36500)). Plates were incubated for 1 h at room temperature. […] This pre-incubation step was carried out in 384 well PP plates (Weidmann medical technology, #23490-101) in 1×OSEP buffer (bidest water, 10×, Roche, #11 666 789 001+0.5% Bovine Serum Albumin Fraction V, fatty acid free, Roche, #10 735 086 001+0.05% Tween 20). Plates were incubated for 1 h at room temperature. After washing VEGF-R1/VEGF-R2 coated streptavidin plates 3 times with 90 μl/well PBST-buffer (bidest water, 10×PBS Roche #11666789001+0.1% Tween 20), 25 μl of samples from the VEGF-antibody pre-incubation plate were transferred to coated strepavidin plates which were subsequently incubated for 1 h at room temperature. After washing 3 times with 90 μl/well PBST-buffer, 25 μl/well detection antibody (anti His POD, Bethyl, #A190-114P, 1:12000) in 1×OSEP was added. After incubation for 1 h at room temperature plates were washed 3 times with 90 μl PBST-buffer. 25 μl TMB (Roche, #11 835 033 001) was added to all wells simultaneously. After 10 min incubation at room temperature, signals were detected at 370 nm/492 nm on a Tecan Safire 2 Reader. […]
Background: ELISA stands for enzyme-linked immunosorbent assay.

The target in experiment [2] is T1, VEGF-121-His (inhouse production). The experiment is described as follows: SPR, hVEGF-A121 captured by anti-His antibody, Fab as analyte, 25 C; 25 C; Table 3 (later example). On the procedure: (§1) An anti-His capturing antibody (GE Healthcare 28995056) was immobilized to a Series S Sensor Chip C1 (GE Healthcare 29104990) using standard amine coupling chemistry resulting in a surface densitiy of 500-1000 resonance units (RU). As running and dilution buffer, HBS-P+(10 mM HEPES, 150 mM NaCl pH 7.4, 0.05% Surfactant P20) was used, the measurement temperature was set to 25° C. and 37° C., respectively. hVEGF-A121 was captured to the surface with resulting capture levels ranging from 5 to 35 RU. Dilution series of anti-VEGF antibodies (0.37-30 nM) were injected for 120 s, dissociation was monitored for at least 600 s at a flow rate of 30 μl/min. The surface was regenerated by injecting 10 mM Glycine pH 1.5 for 60 s. Bulk refractive index differences were corrected by subtracting blank injections and by subtracting the response obtained from the control flow cell without captured hVEGF-A121. Rate constants were calculated using the Langmuir 1:1 binding model within the Biacore Evaluation software.
(§2) The affinity of the antibodies was determined by SPR using the same methods as described in Example 1.

The target is the same in experiment [3]. The experiment is described as follows: SPR, hVEGF-A121 captured by anti-His antibody, Fab as analyte, 37 C. The procedure:
as §1, §2
(In SPR one partner is held on a chip, and binding of the other changes the refractive index at the surface.)

For experiment [4] the target is unchanged. In words: SPR (Biacore), hVEGF-A121 captured by anti-His antibody on C1 chip, Fab as analyte, 1:1 Langmuir model, 25 C; 25 C; Example 1. The procedure:
VEGF-binding of antibody VEGF-0089 Fab fragment was assessed by surface plasmon resonance (SPR) as described below.
as §1

The target is the same in experiment [5]. The experiment is described as follows: SPR, hVEGF-A121 captured by anti-His antibody, Fab as analyte, 25 C. The procedure:
as §1, §2

Changes are numbered by the printed parent chain. Numbers in names are those of the source.

What is called Kd is a measure of binding affinity in units of concentration.

B1: VEGF-P1AD8674 Fab (Fab, V domains shown)
VH: EVQLVESGGGLVQPGGSLRLSCAASGFTFTNYAMTWVRQAPGKGLEWVSSIGNGGGIYTYYADSVKGRFTISRNNAENTLYLQMNSLRAEDTAVYYCAKGDNLFDSWGPGTLVTVSS
VL: DIQMTQSPASLSASVGDRVTITCRASQSIYSSLNWYQQKPGKAPKLLIYASTLQSGVPSRFSGSASGTDFTLTISSLQPEDVATYYCQQYQNFPRTFGQGTKLEIKR
notes: Variant of VEGF-0089 with D72N, S74A, K75E (Kabat) in H-FR3
On to B1, for which the binding result in experiment [1] is given as “binds”.

B2: VEGF-0089 Fab fragment (Fab, V domains shown)
VH: B1 VH with N74D, A76S, E77K
VL: B1 VL
notes: Parent antibody; also called antibody VEGF-0089
With B2, the dissociation constant Kd in experiment [2] turned out to be 0.143 nM; in experiment [3], 0.11 nM; in experiment [4], 0.134 nM.

B3: VEGF-0112 Fab (Fab, V domains shown)
VH: B1 VH with N53S, N74D, A76S, E77K
VL: B1 VL
notes: Variant of VEGF-0089 with N52aS (Kabat) in H-CDR2
For the molecule B3, the Kd amounted to 0.074 nM in experiment [5] and 0.085 nM in experiment [3].

The values above are taken from patent publication US20220002397A1 (Hoffmann-La Roche, published 2022).
